Experimental findings from US20230227838A1, “ENHANCED CELL SURVIVAL AGAINST BIOTIC AND ABIOTIC STRESSES THROUGH SALICYLICK ACID-INDUCED NPR1 CONDENSATES” (priority 2020, published 2023) are described below.

B1: HDA15, histone deacetylase 15 (protein, UniProt Q8GXJ1 1-552, looked up)
Histone deacetylase 15: MVVETIERSCEGSKRRHVNGGDIAVPCSGEECSNGDINVAPGVSAKRARVSREMTFEDIYGADALLNDDDDEDDDCDWEPVQAPMEFVKWCCVNCTMSNPGDMVHCCICGEHKESGILRHGYLASPFFKDTGLIEVEEKYGGSSSATSSTAVGFDERMLLHSEFEVKAQPHPERPDRLRAIAASLATAGVFPGRCLPINAREITKQELQMVHTSEHVDAVDTTSQLLYSYFTSDTYANEYSARAARLAAGLCADLATDIFTGRVKNGFALVRPPGHHAGVRHAMGFCLHNNAAVAALVAQAAGAKKVLIVDWDVHHGNGTQEIFEQNKSVLYISLHRHEGGNFYPGTGAADEVGSNGGEGYCVNVPWSCGGVGDKDYIFAFQHVVLPIASAFSPDFVIISAGFDAARGDPLGCCDVTPAGYSRMTQMLGDLCGGKMLVILEGGYNLRSISASATAVIKVLLGENPENELPIATTPSVAGLQTVLDVLNIQLEFWPSLAISYSKLLSELEARLIENKKNQMKRKVVRVPTWWKWGRKKLLYNFLSARMISRSK
B2: RPP1, Disease resistance protein (TIR-NBS-LRR class) family (protein, UniProt F4J339 1-1194, looked up)
Probable disease resistance protein RPP1: MGSVMSLGCSKRKATNQDVDSESRKRRKICSTNDAENCRFIQDESSWKHPWSLCANRVISVAAVALTNFRFQQDNQESNSSSLSLPSPATSVSRNWKHDVFPSFHGADVRRTFLSHIMESFRRKGIDTFIDNNIERSKSIGPELKEAIKGSKIAIVLLSRKYASSSWCLDELAEIMKCRQMVGQIVMTIFYEVDPTDIKKQTGEFGKAFTKTCRGKPKEQVERWRKALEDVATIAGYHSHSWRNEADMIEKISTDVSNMLNSFTPSRDFDGLVGMRAHMDMLEQLLRLDLDEVRMIGIWGPPGIGKTTIARFLFNQVSDRFQLSAIMVNIKGCYPRPCFDEYSAQLQLQNQMLSQMINHKDIMISHLGVAQERLRDKKVFLVLDEVDQLGQLDALAKETRWFGPGSRIIITTEDLGVLKAHGINHVYKVEYPSNDEAFQIFCMNAFGQKQPHEGFDEIAWEVTCLAGELPLGLKVLGSALRGKSKREWERTLPRLKTSLDGKIGSIIQFSYDVLCDEDKYLFLYIACLFNGESTTKVKELLGKFLDVKQGLHLLAQKSLISFDGERIHMHTLLEQFGRETSRKQFVHHGFTKRQLLVGARGICEVLDDDTTDSRRFIGIHLELSNTEEELNISEKVLERVHDFHFVRIDASFQPERLQLALQDLIYHSPKIRSLNWYGYESLCLPSTFNPEFLVELDMRSSNLRKLWEGTKQLRNLKWMDLSYSSYLKELPNLSTATNLEELKLRNCSSLVELPSSIEKLTSLQILDLENCSSLEKLPAIENATKLRELKLQNCSSLIELPLSIGTATNLKQLNISGCSSLVKLPSSIGDITDLEVFDLSNCSSLVTLPSSIGNLQNLCKLIMRGCSKLEALPININLKSLDTLNLTDCSQLKSFPEISTHISELRLKGTAIKEVPLSIMSWSPLADFQISYFESLMEFPHAFDIITKLHLSKDIQEVPPWVKRMSRLRDLSLNNCNNLVSLPQLSDSLDYIYADNCKSLERLDCCFNNPEIRLYFPKCFKLNQEARDLIMHTCIDAMFPGTQVPACFIHRATSGDSLKIKLKESPLPTTLRFKACIMLVKVNEELMSYDQTPMIVDIVIRDEHNDLKEKIYPSIYPSIYPLLTEHIYTFELDVEEVTSTELVFEFPQLNKRNWKIGECGILQRETRSLRRSSSPDLSPESSRVSSYDHCLRGD
B3: RPP5, Disease resistance protein (TIR-NBS-LRR class) (protein, UniProt F4JNB7 1-1449, looked up)
Disease resistance protein RPP5: MAASSSSGRRRYDVFPSFSGVDVRKTFLSHLIEALDGKSINTFIDHGIERSRTIAPELISAIREARISIVIFSKNYASSTWCLNELVEIHKCFNDLGQMVIPVFYDVDPSEVRKQTGEFGKVFEKTCEVSKDKQPGDQKQRWVQALTDIANIAGEDLLNGPNEAHMVEKISNDVSNKLITRSKCFDDFVGIEAHIEAIKSVLCLESKEARMVGIWGQSGIGKSTIGRALFSQLSIQFPLRAFLTYKSTSGSDVSGMKLSWEKELLSEILGQKDIKIEHFGVVEQRLKHKKVLILLDDVDNLEFLKTLVGKAEWFGSGSRIIVITQDRQFLKAHDIDLVYEVKLPSQGLALTMLCRSAFGKDSPPDDFKELAFEVAKLAGHLPLGLNVLGSSLRRRGKKEWMEMMPRLRNGLNGDIMKTLRVSYDRLHQKDQDMFLCIACLFNGFEVSYVKDLLEDNVGLTMLSEKSLIRITPDGHIEMHNLLEKLGREIDRAKSKGNPGKRQFLTNFEDIHEVVTEKTGTETLLGIRLPFEEYFSTRPLLIDKESFKGMRNLQYLKIGDWSDGGQPQSLVYLPLKLRLLDWDDCPLKSLPSTFKAEYLVNLIMKYSKLEKLWEGTLPLGSLKKMNLLCSKNLKEIPDLSNARNLEELDLEGCESLVTLPSSIQNAIKLRKLHCSGVILIDLKSLEGMCNLEYLSVDCSRVEGTQGIVYFPSKLRLLLWNNCPLKRLHSNFKVEYLVKLRMENSDLEKLWDGTQPLGRLKQMFLRGSKYLKEIPDLSLAINLEEVDICKCESLVTFPSSMQNAIKLIYLDISDCKKLESFPTDLNLESLEYLNLTGCPNLRNFPAIKMGCSDVDFPEGRNEIVVEDCFWNKNLPAGLDYLDCLMRCMPCEFRPEYLVFLNVRCYKHEKLWEGIQSLGSLEEMDLSESENLTEIPDLSKATNLKHLYLNNCKSLVTLPSTIGNLQKLVRLEMKECTGLEVLPTDVNLSSLETLDLSGCSSLRTFPLISKSIKWLYLENTAIEEILDLSKATKLESLILNNCKSLVTLPSTIGNLQNLRRLYMKRCTGLEVLPTDVNLSSLGILDLSGCSSLRTFPLISTNIVWLYLENTAIGEVPCCIEDFTRLRVLLMYCCQRLKNISPNIFRLRSLMFADFTDCRGVIKALSDATVVATMEDSVSCVPLSENIEYTCERFWGELYGDGDWDLGTEYFSFRNCFKLDRDARELILRSCFKPVALPGGEIPKYFTYRAYGDSLTVTLPRSSLSQSFLRFKACLVVDPLSEGKGFYRYLEVNFGFNGKQYQKSFLEDEELEFCKTDHLFFCSFKFESEMTFNDVEFKFCCSNRIKECGVRLMYVSQETEYNQQTTRSKKRMRMTSGTSEEYINLAGDQIVADTGLAALNMELSLGEGEASSSTSLEGEALSVDYMITKEQDEDIPFLDPVSDGTWRSFYSAE

In this test the target is sim3-GFP (Arabidopsis thaliana) (UniProt P93002). As to the kind of experiment: sim3-GFP IP, LC-MS/MS.
Sequence of sim3-GFP (Arabidopsis thaliana) (P93002 other isoform, or with tags, fused parts or gaps): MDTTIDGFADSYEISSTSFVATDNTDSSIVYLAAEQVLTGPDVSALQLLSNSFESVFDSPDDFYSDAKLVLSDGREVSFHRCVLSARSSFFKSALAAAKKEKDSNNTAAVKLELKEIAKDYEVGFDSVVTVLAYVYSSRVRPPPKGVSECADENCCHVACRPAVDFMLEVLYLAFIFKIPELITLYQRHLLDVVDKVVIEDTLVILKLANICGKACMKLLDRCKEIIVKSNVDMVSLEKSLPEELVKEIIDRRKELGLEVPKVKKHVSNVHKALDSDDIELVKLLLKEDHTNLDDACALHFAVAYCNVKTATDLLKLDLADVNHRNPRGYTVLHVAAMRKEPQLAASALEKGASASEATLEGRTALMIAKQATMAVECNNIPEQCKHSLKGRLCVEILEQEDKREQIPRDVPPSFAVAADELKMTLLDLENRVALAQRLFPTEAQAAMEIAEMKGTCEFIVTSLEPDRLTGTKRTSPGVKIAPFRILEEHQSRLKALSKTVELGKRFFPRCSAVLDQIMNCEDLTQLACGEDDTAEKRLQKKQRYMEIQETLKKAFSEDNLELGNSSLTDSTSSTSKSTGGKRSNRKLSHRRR
For “DDB1B, damaged DNA binding protein 1B (from UniProt O49552 1-1088)”, the Normalized Fold Change: SA vs Mock came out at 1620 fold.

“PR1, pathogenesis-related gene 1 (from UniProt P33154 27-161)” displayed a Normalized Fold Change: SA vs Mock of 3.65 fold.

In turn, “RHD3, Root hair defective 3 GTP-binding protein (RHD3)” displayed a Normalized Fold Change: SA vs Mock of 2.86 fold.

For “P-loop containing nucleoside triphosphate hydrolases superfamily protein (AT5G17760)”, the Normalized Fold Change: SA vs Mock turned out to be 4790 fold.

“NAD(P)-binding Rossmann-fold superfamily protein (AT2G29320)” yielded a Normalized Fold Change: SA vs Mock of 40 fold.

Fes1A registered a Normalized Fold Change: SA vs Mock of 3.16 fold.

As to “Leucine-rich repeat (LRR) family protein (AT5G45520)”, the Normalized Fold Change: SA vs Mock came out at 2270 fold.

The molecule “CAND1, cullin-associated and neddylation dissociated (from UniProt Q8L5Y6 2-1219)” had a Normalized Fold Change: SA vs Mock of 42.1 fold.

For “Disease resistance protein (TIR-NBS-LRR class) (AT5G41750)”, the Normalized Fold Change: SA vs Mock stood at 10.2 fold.

In turn, “CTF2B, FAD/NAD(P)-binding oxidoreductase family protein” yielded a Normalized Fold Change: SA vs Mock of 3.15 fold.

For RNA helicase family protein (AT1G27900), the Normalized Fold Change: SA vs Mock was determined as 1960 fold.

On to “Disease resistance protein (TIR-NBS class) (AT1G66090)”, for which the Normalized Fold Change: SA vs Mock turned out to be 6.26 fold.

AT3G47630: the Normalized Fold Change: SA vs Mock stood at 703 fold.

Consider “Transducin/WD40 repeat-like superfamily protein (AT3G50590)”, for which the Normalized Fold Change: SA vs Mock turned out to be 3400 fold.

For the molecule “SIRANBP, Pleckstrin homology (PH) domain superfamily protein”, the Normalized Fold Change: SA vs Mock came to 709 fold.

Consider B1, for which the Normalized Fold Change: SA vs Mock turned out to be 2570 fold.

Take B2: the Normalized Fold Change: SA vs Mock was 13.7 fold.

In the case of B3, the Normalized Fold Change: SA vs Mock is 3.79 fold.
